Test results from patent publication US20200024322A1 (Eli Lilly, published 2020).
Numbered stars: 1 amine (or outer) side, 2 acyl side, 3 side chain; on linkers, the order of the positions; unused ones are H or OH. Square brackets hold non-standard residues; d marks the D form. Side chains are listed from the residue outwards. Ends that are not written are not given here. * marks the point of attachment. C20 diacid = O=C(O)CCCCCCCCCCCCCCCCCCC(=O)*; αMePhe(2-F) = C[C@](N)(Cc1ccccc1F)C(=O)O; γGlu = O=C(O)[C@H](CCC(=O)[*:2])N[*:1]; Desaminohistidyl = O=C(CCc1c[nH]cn1)*; αMeF = C[C@](N)(Cc1ccccc1)C(=O)O; αMeL = CC(C)C[C@](C)(N)C(=O)O; cTA = not defined here; AEEA = NCCOCCOCC(=O)O; Aib = CC(C)(N)C(=O)O

Columns and labels:
human glucagon receptor = target: T1, human glucagon receptor (human, UniProt P47871 26-477); experiment: SPA, [125I]-Gcg displacement, hGcgR membranes
T1 construct: whole, on cells; Used as crude membranes of stably transfected HEK293 cells; also called hGcgR; hGLcgR

human GLP-1 receptor = target: T2, human GLP-1 receptor (human, UniProt P43220 24-463); experiment: SPA, [125I]-GLP-1 displacement, hGLP-1R membranes
T2 construct: whole, on cells; Used as crude membranes of stably transfected HEK293 cells; also called hGLP1R; hGLP-1R

human GIP receptor = target: T3, human GIP receptor (human, UniProt P48546 22-466); experiment: SPA, [125I]-GIP displacement, hGIPR membranes
T3 construct: whole, on cells; Used as crude membranes of stably transfected CHO cells; also called hGIPR
T3 sequence (looked up): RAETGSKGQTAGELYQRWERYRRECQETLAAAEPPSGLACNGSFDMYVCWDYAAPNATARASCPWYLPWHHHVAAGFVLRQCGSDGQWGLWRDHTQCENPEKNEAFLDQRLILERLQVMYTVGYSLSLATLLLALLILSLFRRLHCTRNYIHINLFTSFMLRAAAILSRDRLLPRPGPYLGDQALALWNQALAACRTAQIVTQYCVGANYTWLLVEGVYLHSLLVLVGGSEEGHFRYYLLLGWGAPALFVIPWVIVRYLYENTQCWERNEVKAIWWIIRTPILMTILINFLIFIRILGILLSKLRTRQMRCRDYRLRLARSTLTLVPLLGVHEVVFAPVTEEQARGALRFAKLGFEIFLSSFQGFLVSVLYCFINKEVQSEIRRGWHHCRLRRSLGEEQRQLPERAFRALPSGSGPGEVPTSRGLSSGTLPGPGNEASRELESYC

T1 sequence (P47871 26-477): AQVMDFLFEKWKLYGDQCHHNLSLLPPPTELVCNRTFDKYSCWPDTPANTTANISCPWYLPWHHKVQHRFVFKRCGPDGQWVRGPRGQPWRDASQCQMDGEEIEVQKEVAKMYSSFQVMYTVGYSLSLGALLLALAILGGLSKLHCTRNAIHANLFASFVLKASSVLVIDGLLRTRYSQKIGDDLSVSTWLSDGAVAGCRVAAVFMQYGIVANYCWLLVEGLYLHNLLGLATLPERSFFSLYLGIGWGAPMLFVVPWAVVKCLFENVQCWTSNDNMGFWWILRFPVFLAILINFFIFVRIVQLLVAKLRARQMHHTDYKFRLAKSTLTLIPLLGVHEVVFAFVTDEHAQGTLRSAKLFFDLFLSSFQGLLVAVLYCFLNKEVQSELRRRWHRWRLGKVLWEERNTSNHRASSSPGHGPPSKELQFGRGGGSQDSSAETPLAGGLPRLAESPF

B1: Example 101 (peptide)
peptide: Y[Aib]EGT[αMePhe(2-F)]TSDYSI[Aib]LDEK([AEEA-AEEA-γGlu-C20 diacid])AQ[Aib]AFIEYLIEGG-NH2
modifications: N-terminus assumed
SMILES: CC[C@H](C)[C@H](NC(=O)[C@H](CC(C)C)NC(=O)[C@H](Cc1ccc(O)cc1)NC(=O)[C@H](CCC(=O)O)NC(=O)[C@@H](NC(=O)[C@H](Cc1ccccc1)NC(=O)[C@H](C)NC(=O)C(C)(C)NC(=O)[C@H](CCC(N)=O)NC(=O)[C@H](C)NC(=O)[C@H](CCCCNC(=O)COCCOCCNC(=O)COCCOCCNC(=O)CC[C@H](NC(=O)CCCCCCCCCCCCCCCCCCC(=O)O)C(=O)O)NC(=O)[C@H](CCC(=O)O)NC(=O)[C@H](CC(=O)O)NC(=O)[C@H](CC(C)C)NC(=O)C(C)(C)NC(=O)[C@@H](NC(=O)[C@H](CO)NC(=O)[C@H](Cc1ccc(O)cc1)NC(=O)[C@H](CC(=O)O)NC(=O)[C@H](CO)NC(=O)[C@@H](NC(=O)[C@](C)(Cc1ccccc1F)NC(=O)[C@@H](NC(=O)CNC(=O)[C@H](CCC(=O)O)NC(=O)C(C)(C)NC(=O)[C@@H](N)Cc1ccc(O)cc1)[C@@H](C)O)[C@@H](C)O)[C@@H](C)CC)[C@@H](C)CC)C(=O)N[C@@H](CCC(=O)O)C(=O)NCC(=O)NCC(N)=O
Q: How did the Ki (human glucagon receptor) turn out when B1 was run?
A: 117 nM

Q: What about the Ki (human GLP-1 receptor) of the same binder?
A: 8.1 nM

Q: And the Ki (human GIP receptor)?
A: 0.0953 nM

B2: Example 120 (peptide)
peptide: Y[Aib][cTA]GT[αMeF]TSDYSI[αMeL]LDEK([AEEA-AEEA-γGlu-C20 diacid])AQ[Aib]AFIEYLIEGGPSSGAPPPS-NH2
modifications: reading uncertain
Q: With B2 as the binder, how does the Ki (human glucagon receptor) read?
A: 93.6 nM

Q: And the Ki (human GLP-1 receptor)?
A: 11.7 nM

Q: What about the Ki (human GIP receptor) of the same binder?
A: 0.11 nM

B3: Example 123 (peptide)
peptide: YXEGTXTSDYSIXLDKKAQXEFIEYLIEGGPSSG
modifications: Aib2; αMeF6; αMeL13; K17((2-[2-(2-Amino-ethoxy)-ethoxy]-acetyl)2-(γ-Glu)-CO-(CH2)18-CO2H); Aib20; C-terminal NH2
Q: For B3, which Ki (human glucagon receptor) is on record?
A: 80.1 nM

Q: And the Ki (human GLP-1 receptor)?
A: 1.31 nM

Q: What about the Ki (human GIP receptor) of the same binder?
A: 0.0469 nM

B4: Example 124 (peptide)
peptide: YXEGTXTSDYSIXLDEKAQXEFIEYLIEGGPSSG
modifications: Aib2; αMeF6; αMeL13; K17((2-[2-(2-Amino-ethoxy)-ethoxy]-acetyl)2-(γ-Glu)-CO-(CH2)18-CO2H); Aib20; C-terminal NH2
Q: For B4, which Ki (human glucagon receptor) is on record?
A: 41.5 nM

Q: And the Ki (human GLP-1 receptor)?
A: 4.87 nM

Q: What about the Ki (human GIP receptor) of the same binder?
A: 0.0424 nM

B5: Example 107 (peptide)
peptide: XXEGTFTSDYSILLDKKAQXAFIEYLIEGGPSSGAPPPS
modifications: DesTyr1; Aib2; K17((2-[2-(2-Amino-ethoxy)-ethoxy]-acetyl)2-(γ-Glu)-CO-(CH2)18-CO2H); Aib20; C-terminal NH2
Q: Which results are given for B5?
A: Ki (human glucagon receptor): 303 nM; Ki (human GLP-1 receptor): 0.867 nM; Ki (human GIP receptor): 0.0425 nM

B6: Example 117 (peptide)
peptide: Y[Aib]EGT[αMeF]TSDYSI[Aib]LDEK([AEEA-AEEA-γGlu-C20 diacid])AQ[Aib]AFIEYLIEGGPSSGAPPPS-NH2
modifications: N-terminus assumed
SMILES: CC[C@H](C)[C@H](NC(=O)[C@H](CC(C)C)NC(=O)[C@H](Cc1ccc(O)cc1)NC(=O)[C@H](CCC(=O)O)NC(=O)[C@@H](NC(=O)[C@H](Cc1ccccc1)NC(=O)[C@H](C)NC(=O)C(C)(C)NC(=O)[C@H](CCC(N)=O)NC(=O)[C@H](C)NC(=O)[C@H](CCCCNC(=O)COCCOCCNC(=O)COCCOCCNC(=O)CC[C@H](NC(=O)CCCCCCCCCCCCCCCCCCC(=O)O)C(=O)O)NC(=O)[C@H](CCC(=O)O)NC(=O)[C@H](CC(=O)O)NC(=O)[C@H](CC(C)C)NC(=O)C(C)(C)NC(=O)[C@@H](NC(=O)[C@H](CO)NC(=O)[C@H](Cc1ccc(O)cc1)NC(=O)[C@H](CC(=O)O)NC(=O)[C@H](CO)NC(=O)[C@@H](NC(=O)[C@](C)(Cc1ccccc1)NC(=O)[C@@H](NC(=O)CNC(=O)[C@H](CCC(=O)O)NC(=O)C(C)(C)NC(=O)[C@@H](N)Cc1ccc(O)cc1)[C@@H](C)O)[C@@H](C)O)[C@@H](C)CC)[C@@H](C)CC)C(=O)N[C@@H](CCC(=O)O)C(=O)NCC(=O)NCC(=O)N1CCC[C@H]1C(=O)N[C@@H](CO)C(=O)N[C@@H](CO)C(=O)NCC(=O)N[C@@H](C)C(=O)N1CCC[C@H]1C(=O)N1CCC[C@H]1C(=O)N1CCC[C@H]1C(=O)N[C@@H](CO)C(N)=O
Q: How did the Ki (human glucagon receptor) turn out when B6 was run?
A: 192 nM

Q: And the Ki (human GLP-1 receptor)?
A: 6.96 nM

Q: And the Ki (human GIP receptor)?
A: 0.0497 nM

B7: Example 105 (peptide)
peptide: [Desaminohistidyl][Aib]EGTFTSDYSILLDKK([AEEA-AEEA-γGlu-C20 diacid])AQ[Aib]AFIEYLIEGGPSSGAPPPS-NH2
modifications: also: reversed amide ψ[NHCO] between residues 1 and 2
Q: Which results are given for B7?
A: Ki (human glucagon receptor): 20.4 nM; Ki (human GLP-1 receptor): 0.871 nM; Ki (human GIP receptor): 0.119 nM

B8: Example 121 (peptide)
peptide: Y[Aib]EGT[αMeF]TSDYSI[αMeL]LDEK([AEEA-AEEA-γGlu-C20 diacid])AQQAFIEYLIEGGPSSGAPPPS-NH2
modifications: N-terminus assumed
SMILES: CC[C@H](C)[C@H](NC(=O)[C@H](CC(C)C)NC(=O)[C@H](Cc1ccc(O)cc1)NC(=O)[C@H](CCC(=O)O)NC(=O)[C@@H](NC(=O)[C@H](Cc1ccccc1)NC(=O)[C@H](C)NC(=O)[C@H](CCC(N)=O)NC(=O)[C@H](CCC(N)=O)NC(=O)[C@H](C)NC(=O)[C@H](CCCCNC(=O)COCCOCCNC(=O)COCCOCCNC(=O)CC[C@H](NC(=O)CCCCCCCCCCCCCCCCCCC(=O)O)C(=O)O)NC(=O)[C@H](CCC(=O)O)NC(=O)[C@H](CC(=O)O)NC(=O)[C@H](CC(C)C)NC(=O)[C@](C)(CC(C)C)NC(=O)[C@@H](NC(=O)[C@H](CO)NC(=O)[C@H](Cc1ccc(O)cc1)NC(=O)[C@H](CC(=O)O)NC(=O)[C@H](CO)NC(=O)[C@@H](NC(=O)[C@](C)(Cc1ccccc1)NC(=O)[C@@H](NC(=O)CNC(=O)[C@H](CCC(=O)O)NC(=O)C(C)(C)NC(=O)[C@@H](N)Cc1ccc(O)cc1)[C@@H](C)O)[C@@H](C)O)[C@@H](C)CC)[C@@H](C)CC)C(=O)N[C@@H](CCC(=O)O)C(=O)NCC(=O)NCC(=O)N1CCC[C@H]1C(=O)N[C@@H](CO)C(=O)N[C@@H](CO)C(=O)NCC(=O)N[C@@H](C)C(=O)N1CCC[C@H]1C(=O)N1CCC[C@H]1C(=O)N1CCC[C@H]1C(=O)N[C@@H](CO)C(N)=O
Q: How did the Ki (human glucagon receptor) turn out when B8 was run?
A: 51.9 nM

Q: And the Ki (human GLP-1 receptor)?
A: 3.16 nM

Q: And the Ki (human GIP receptor)?
A: 0.177 nM

B9: Example 106 (peptide)
peptide: [Desaminohistidyl][Aib]EGTFTSDYSILLDKK([AEEA-AEEA-γGlu-C20 diacid])AQ[Aib]AFIEYLIEGGPSSGAPPPS-NH2
SMILES: CC[C@H](C)[C@H](NC(=O)[C@H](CC(C)C)NC(=O)[C@H](Cc1ccc(O)cc1)NC(=O)[C@H](CCC(=O)O)NC(=O)[C@@H](NC(=O)[C@H](Cc1ccccc1)NC(=O)[C@H](C)NC(=O)C(C)(C)NC(=O)[C@H](CCC(N)=O)NC(=O)[C@H](C)NC(=O)[C@H](CCCCNC(=O)COCCOCCNC(=O)COCCOCCNC(=O)CC[C@H](NC(=O)CCCCCCCCCCCCCCCCCCC(=O)O)C(=O)O)NC(=O)[C@H](CCCCN)NC(=O)[C@H](CC(=O)O)NC(=O)[C@H](CC(C)C)NC(=O)[C@H](CC(C)C)NC(=O)[C@@H](NC(=O)[C@H](CO)NC(=O)[C@H](Cc1ccc(O)cc1)NC(=O)[C@H](CC(=O)O)NC(=O)[C@H](CO)NC(=O)[C@@H](NC(=O)[C@H](Cc1ccccc1)NC(=O)[C@@H](NC(=O)CNC(=O)[C@H](CCC(=O)O)NC(=O)C(C)(C)NC(=O)CCc1c[nH]cn1)[C@@H](C)O)[C@@H](C)O)[C@@H](C)CC)[C@@H](C)CC)C(=O)N[C@@H](CCC(=O)O)C(=O)NCC(=O)NCC(=O)N1CCC[C@H]1C(=O)N[C@@H](CO)C(=O)N[C@@H](CO)C(=O)NCC(=O)N[C@@H](C)C(=O)N1CCC[C@H]1C(=O)N1CCC[C@H]1C(=O)N1CCC[C@H]1C(=O)N[C@@H](CO)C(N)=O
Q: Which Ki (human glucagon receptor) does the source give for B9 here?
A: 515 nM

Q: What about the Ki (human GLP-1 receptor) of the same binder?
A: 1.2 nM

Q: And the Ki (human GIP receptor)?
A: 0.179 nM

B10: Example 122 (peptide)
peptide: Y[Aib]EGT[αMeF]TSDYSI[αMeL]LDEK([AEEA-AEEA-γGlu-C20 diacid])AQQAFIEYLIE[Aib]GPSSGAPPPS-NH2
modifications: N-terminus assumed
SMILES: CC[C@H](C)[C@H](NC(=O)[C@H](Cc1ccccc1)NC(=O)[C@H](C)NC(=O)[C@H](CCC(N)=O)NC(=O)[C@H](CCC(N)=O)NC(=O)[C@H](C)NC(=O)[C@H](CCCCNC(=O)COCCOCCNC(=O)COCCOCCNC(=O)CC[C@H](NC(=O)CCCCCCCCCCCCCCCCCCC(=O)O)C(=O)O)NC(=O)[C@H](CCC(=O)O)NC(=O)[C@H](CC(=O)O)NC(=O)[C@H](CC(C)C)NC(=O)[C@](C)(CC(C)C)NC(=O)[C@@H](NC(=O)[C@H](CO)NC(=O)[C@H](Cc1ccc(O)cc1)NC(=O)[C@H](CC(=O)O)NC(=O)[C@H](CO)NC(=O)[C@@H](NC(=O)[C@](C)(Cc1ccccc1)NC(=O)[C@@H](NC(=O)CNC(=O)[C@H](CCC(=O)O)NC(=O)C(C)(C)NC(=O)[C@@H](N)Cc1ccc(O)cc1)[C@@H](C)O)[C@@H](C)O)[C@@H](C)CC)C(=O)N[C@@H](CCC(=O)O)C(=O)N[C@@H](Cc1ccc(O)cc1)C(=O)N[C@@H](CC(C)C)C(=O)N[C@H](C(=O)N[C@@H](CCC(=O)O)C(=O)NC(C)(C)C(=O)NCC(=O)N1CCC[C@H]1C(=O)N[C@@H](CO)C(=O)N[C@@H](CO)C(=O)NCC(=O)N[C@@H](C)C(=O)N1CCC[C@H]1C(=O)N1CCC[C@H]1C(=O)N1CCC[C@H]1C(=O)N[C@@H](CO)C(N)=O)[C@@H](C)CC
Q: With B10 as the binder, how does the Ki (human glucagon receptor) read?
A: 43.3 nM

Q: What about the Ki (human GLP-1 receptor) of the same binder?
A: 3.36 nM

Q: What about the Ki (human GIP receptor) of the same binder?
A: 0.19 nM
